{"source": "paper PMC3551926", "about": "“Dact2 Represses PITX2 Transcriptional Activation and Cell Proliferation through Wnt/beta-Catenin Signaling during Odontogenesis” (PLoS ONE, 2013)", "biological_target": "GST-PITX2A-FL (full length) (UniProt Q99697-3 1-271)", "test": "cell-based or functional assay", "data": [{"binder": "Dact2, purified bacterially expressed protein (natural protein, mouse, UniProt Q7TN08 1-757, looked up) MWAPSGQGPAGWDRRRVGARLRAALAGLQELQGLRATQQARVRGALGLHPAPGPRGQELRLEAALTALREQLSRLRRQDAGLKTHLDQLDQQISELQLDVSRSSCEALDSDSRPSSGFYELSDAGSCSLSTSCASVCSDRLSPSLGSWLPVFQPSKSRSGIGDWRPRSADETTVPAWSPQLTEDSRLLHGAEGTGRLTGMFRPRPVSTGDLERVLPADVGLQRAGTDAAHLLGQGIEIPAHALDPTYQRDLVARGGQEVYPYPSPLHAVALQSPLFALPKEAPCFDICSPPQEPPLVPVDENRTQPEPIRELGSAEAYIHRLLHLRGQELPLRDVGQEQGGDTAAFPPKPCGQRSESTCQLEKQACGADRGGLKLGRGAAKDSLKQHGPVSLVGAEPLSSPLKEETIPWNPCVHGDNTVGSSPCSQAQQPLNDCGQGPVLSPSRVLGTESPPLAPEPFAYTSCTTGETSPVKLRMGFSQNKAVKVRRRVSEKVPRLGKQLPPQPERQRVTERDPSRPHQGGLSRRPTLAREPPGRSCSESTLYPVPFLVPVVVAQRESYPTSPQAFFPMEAALLSSAARRKQRRWQSTMEISAKAGSVSQPGPSMGLPRSPAKRGSGPRAQSRPTLARQDACARCESDPSEHSADCTSLYHSTIAETSEDEEASDHTANRFGDESSSNDSEGCFRGSRRRLAIGSAEAGQGGWAWPRVPPQQPSRAPGNTRPPLPPVPKLCRIKASKALKKKIRRFQPAALKVMTMV", "values": [{"measurement": "luciferase reporter driven by the Amelx 2.2 kb promoter in cells co-transfected with PITX2A and Dact2: fold activation by PITX2A with Dact2 (∼22-fold without Dact2)", "result": 14, "unit": "fold activation"}]}]}
